Assay results from PMC7353425.

Molecular target: 3 × LPG (truncated derivative of linker-protein G with three linker sequence repeats) (Streptococcus strain G148)
Experiment: QCM-D; 3 × LPG (3.27–654 nM) adsorbed on SiO2-coated sensor, free sites blocked with 1 mg/mL BSA, trastuzumab injected at 1 µg/mL; 1 × PBS pH 7.4, 22 °C, flow 150 µL/min; mass from the Voigt viscoelastic model

Substance: trastuzumab (humanized anti-HER2 monoclonal antibody)
- mass deposited for bound trastuzumab: 1020 ng/cm^2
